Five molecules from PMC5724010 (The Journal of Biological Chemistry, 2017) can be followed below.

The target in one series is FplA(20–431) (Fusobacterium nucleatum subsp. nucleatum, UniProt Q8R6F6). It counts as biochemical, F. nucleatum 25586.
For series [1], the system named is CCCCCCC(=O)Oc1ccc2c(C)cc(=O)oc2c1. The experiment in a line: purified protein, by the assay type.
Experimental: (§1) In detail, FplA was used at 1 nM in the reaction, and substrate (50 mM stock in 100% DMSO) dilutions (0–200 μM) and reactions were carried out in reaction buffer (50 mM Tris, pH 8.5, 50 mM NaCl, 0.025% BOG). All samples, including controls, contained equal concentrations of DMSO (0.4%). Reactions were run at 26 °C for 30 min with 3 s of shaking between continuous fluorescent monitoring (excitation = 360 nm, emission = 449 nm) every 2 min on a SpectraMax M5^e plate reader. Relative fluorescence units measured upon cleavage of substrate ester bonds and release of the acyl chain were converted to the concentration of product (4-methylumbeliferone; 4-Mu) created by establishing a standard curve using pure 4-Mu (Sigma-Aldrich).
(§2) The steady-state kinetic parameters for each substrate were determined using GraphPad Prism version 6 (GraphPad Software, La Jolla, CA) by fitting the initial rate data (n = 2) to the Michaelis–Menten equation, (Eq. 1) v=Vmax⁡[S]/(Km+[S]) to obtain the values reported in Fig. 2 and supplemental Fig. S3.
The test system of series [2] is CCCC(=O)Oc1ccc2c(C)cc(=O)oc2c1. The experiment in a line: purified protein, by the assay type. Particulars: other: Fig. 4C/D, substrate of FplA(20–431), 1 nM enzyme, pH 8.5, 26 °C.
Experimental: as §1, §2
Series [3] deals with CCCCCCCCCCCCCCCC(=O)Oc1ccc2c(C)cc(=O)oc2c1. The experiment in a line: purified protein, by the assay type. Particulars: other: Fig. 4C/D, substrate of FplA(20–431), 1 nM enzyme, pH 8.5, 26 °C.
Experimental: as §1, §2
Where [4] appears, read: other: Fig. 4E, 4-MuH as substrate, construct FplA60-431, pH 8.5, 26.0 °C.
The mark [5] stands for this setting: other: Fig. 4E, 4-MuH as substrate, construct FplA20-350, pH 8.5, 26.0 °C.
Where [6] appears, read: other: Fig. 4E, 4-MuH as substrate, construct FplA20-431, pH 8.5, 26.0 °C.
Where [7] appears, read: other: Fig. 4E, 4-MuH as substrate, construct FplA60-350, pH 8.5, 26.0 °C.

Chain of FplA(20–431) (Q8R6F6 20-431 limits assumed): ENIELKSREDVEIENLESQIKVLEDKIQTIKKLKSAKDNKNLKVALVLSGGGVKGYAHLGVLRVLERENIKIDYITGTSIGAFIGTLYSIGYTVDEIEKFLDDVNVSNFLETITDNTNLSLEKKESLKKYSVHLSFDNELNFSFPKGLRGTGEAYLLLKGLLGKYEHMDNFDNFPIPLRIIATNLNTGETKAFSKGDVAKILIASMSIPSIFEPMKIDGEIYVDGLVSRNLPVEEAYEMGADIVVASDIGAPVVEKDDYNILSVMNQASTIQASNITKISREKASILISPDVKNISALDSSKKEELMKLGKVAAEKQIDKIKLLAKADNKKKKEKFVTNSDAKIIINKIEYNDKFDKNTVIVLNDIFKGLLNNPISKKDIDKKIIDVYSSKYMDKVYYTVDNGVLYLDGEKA

In the case of `CCCCC/C=C\C/C=C\C/C=C\C/C=C\CCCC(=O)C(F)(F)F` [ATFMK, arachidonyl trifluoromethyl ketone], on FplA(20–431), the “Inhibition of FplA, potency in words” value is reported as “potent inhibitors”.
As to “FplA60-431 (Fusobacterium nucleatum subsp. nucleatum ATCC 25586)”, in series [1] (setting [4]), the Km worked out at 18.2 ± 7.4 µM, the kcat was 2.8 ± 0.3 s⁻¹ and the kcat/Km is 150000 ± 60000 M⁻¹ s⁻¹.
Turning to “FplA20-350 (Fusobacterium nucleatum subsp. nucleatum ATCC 25586)”, in series [1] (setting [5]), the Km came to 23.5 ± 6.5 µM and the kcat turned out to be 75 ± 6.2 s⁻¹.
As for “FplA(20–431) (Fusobacterium nucleatum subsp. nucleatum ATCC 25586)”, the Km came out at 500 µM in series [2]; 19 µM in series [1] (other: Fig. 4C/D, substrate of FplA(20–431), 1 nM enzyme, pH 8.5, 26 °C); 19.6 ± 5.0 µM in series [1] (setting [6]); 23 µM in series [3]. Also, the kcat in series [1] (setting [6]) was 55 ± 4.0 s⁻¹. In series [1] (setting [6]), the kcat/Km was 2.8e+06 ± 700000 M⁻¹ s⁻¹.
Take “FplA60-350 (Fusobacterium nucleatum subsp. nucleatum ATCC 25586)”: in series [1] (setting [7]), the Km came out at 17.7 ± 8.4 µM, the kcat came to 2.1 ± 0.3 s⁻¹ and the catalytic efficiency (kcat/Km) amounted to 120000 ± 60000 M⁻¹ s⁻¹.
